Results published in article PMC4960638, “Changes in the folding landscape of the WW domain provide a molecular mechanism for an inherited genetic syndrome” (Scientific Reports, 2016).
Bridges are numbered along the chain shown (N, C = ends). Where no end group is shown, it is not given here.

Target: the molecule itself
Test: SEC; size exclusion chromatography in the purification of the WW domain; column and buffer not shown (SI)

B1: WW domain of polyglutamine tract-binding protein 1 (PQBP1), Y65C mutant, 37 amino acid construct (domain or fragment, human, UniProt O60828 47-83, looked up)
chain: GLPPSWYKVFDPSCGLPYCWNADTDLVSWLSPHDPNS
modifications: disulfide 14-19 (inferred); not fully specified
notes: the mutation causes Golabi-Ito-Hall syndrome; also called Y65C WW domain; WW Y65C; source: purified by size exclusion chromatography
**Q.** B1 was tested. Which “stoichiometry N” value did it give?
**A.** Its value is 2.
